# Results published in patent US20210332123A1 (SUZHOU KANOVA BIOPHARMACEUTICAL, published 2021).
# T1: human IL-25 (human, UniProt Q9H293 33-177)
# T1 construct: ELISA used bought R&D systems #1258-IL-025/CF; Treated as one molecule; also called IL-17E; human IL-17E
# T1 sequence (looked up): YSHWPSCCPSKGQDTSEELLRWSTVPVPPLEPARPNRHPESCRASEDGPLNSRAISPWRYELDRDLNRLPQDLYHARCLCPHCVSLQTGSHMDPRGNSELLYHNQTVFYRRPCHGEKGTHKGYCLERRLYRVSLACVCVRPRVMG
# T2: mouse IL-25 (mouse, UniProt Q8VHH8 17-169, limits assumed)
# T2 construct: In-house production
# T2 sequence (looked up): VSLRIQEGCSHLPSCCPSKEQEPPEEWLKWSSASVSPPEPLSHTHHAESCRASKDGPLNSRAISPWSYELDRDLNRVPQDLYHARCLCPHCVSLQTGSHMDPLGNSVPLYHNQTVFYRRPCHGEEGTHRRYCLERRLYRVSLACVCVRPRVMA
# Experiments:
# [1] = molecular target: T1, human IL-25; assay: ELISA, plate coated with human IL-25 (hIl25-HIS), OD450, Example 4; unit from the axis lg(nM) and paragraph 95
# Experimental: MaxiSorp 96-well plates (NUNC #449824, www.thermofisher.com) were coated with 2 μg/ml human IL-25 (R&D systems #1258-IL-025/CF) in 1×PBS (50 μl/well). Plates were incubated at 4° C. overnight. Coating solution was removed and plates were washed once with 200 μl/well PBST (1×PBS with 0.05% tween-20). Then 200 μl/well blocking buffer (1×PBS with 0.05% tween-20, 3% BSA) were added and incubated at room temperature for 1 hour. Blocking buffer was removed and plates were washed three times with 200 μl/well PBST (1×PBS with 0.05% tween-20). Anti-IL-25 antibodies (produced in Example 2) were diluted to 10, 3.33, 1.11, 0.37, 0.123, 0.041, 0.0137, 0.0046, 0.0015, 0.00031, 0.000102, 0.000034 μg/ml by 1×PBS and added to plates (50 μl/well). Plates were incubated at room temperature for 2 hours. Antibodies in the wells were removed and plates were washed three times with 200 μl/well PBST (1×PBS with 0.05% tween-20). Goat anti-human IgG (H&L)-HRP secondary antibody (Jackson Immuno Research #109-035-088, www.jacksonimmuno.com) was diluted 1:5000 in 1×PBS and added to each well (50 μl/well). Plates were incubated at room temperature for 1 hour. Secondary antibody was removed and plates were washed seven times with 200 μl/well PBST (1×PBS with 0.05% tween-20) each time. 50 μl/well TMB (eBioscience #85-00-4201-56, www.ebioscience.com) was added and plates were incubated at room temperature for several minutes. Then 50 μl/well 2N H₂SO₄ was added to stop the reaction. Optical density was measured at 450 nm in relation to human IL-25 binding.
# [2] = molecular target: T2, mouse IL-25; assay: ELISA, plate coated with mouse IL-25, OD450, Example 7; unit from the axis lg(nM) [panel Mouse IL-25]
# [3] = molecular target: T1, human IL-25; assay: cell-based or functional assay
binder,measurement,setting,value
"VH1-2-VL2-1 (antibody, V domains shown, also called antibody formed by VH1-2 and VL2-1; copies: 2 + 2) VH: QVTLKESGPTLLKPTQTLTLTCTFSGFSLSTSGMGLGWIRQPPGKALEWLAHIWWDDVKHYKPALKSRLTITKDTSKNQVVLTITNVDPVDTATYYCARMGQLHYYGYDYAMDYWGQGTLVTVSS VL: DIQLTQSPSFLSASVGDRVTITCSASSSVSYMYWYQQKPGKAPKPLIYRTSNLASGVPSRFSGSGSGTEYTLTISSMQPEDFATYYCQLYHSYPPTWTFGQGTKLEIK",EC50,[1],0.208 nM
same,EC50,[2],0.215 nM
same,"IC50, CXCL1/GROalpha production of HT-29 cells stimulated by human IL-25 [B]",[3],11.4 nM
